Values quoted from earlier work in article PMC3076547.

Target: Nef (Human immunodeficiency virus 1) (UniProt P04324)

Substance: Hck SH3 (from UniProt P08631)
- Kd: 250 nM
